The text below walks through data of patent publication US6972178B1, “Drug screening using a proline-rich nuclear receptor co-regulatory protein/nuclear receptor co-expression system” (City of Hope, priority 1999, dated 2005).

For assay [1], the target named is T1, SF1 (Bos taurus, UniProt Q04752). In words: Nuclear receptor transactivation, CAT reporter in SK-BR-3 cells. The format is cell-based, bovine. The arrangement: The coding region for the wild type bovine SF1 was first subcloned into a yeast expression vector, pGBT9; expressed in transfected cells; host or cells: yeast (Y187, or Y187 x CG1945 diploids). The text has this: To examine the possible biological significance of this interaction, the entire PNRC coding region was inserted into a mammalian expression vector, pSG5, and this expression plasmid was used to transiently transfect SK-BR-3 cells along with a reporter plasmid, pUMS 1.3CAT-(SF1site)3, which contains three copies of extended steroid hormone half binding site from the human aromatase gene (5′-CCAAGGTCAGAA-3′ (SEQ ID NO:3)), promoter 1.3 of the human aromatase gene, and the CAT reporter gene, along with a second expression plasmid for either SF1 (pSG5-SF1) or ERRα1 (pSG5-ERRα1) (Yang et al., 1998).
Plasmid for overexpression of PNRC in mammalian cells was made by inserting PCR-amplified fragment with BclI at both ends into the BamHI site in pSG5 vector (Stratagene). To construct mammalian expression plasmids for bovine SF1 and human ERRα1, named pSG5-bSF1 and pSGS-hERRα1, the coding regions for SF1 and ERRα1 were amplified by PCR with an EcoRI site at both ends, and inserted into an EcoRI site of the pSG5 vector. The CAT reporter plasmid, pUMS1.3CAT-(SF1site)3, was prepared by inserting 3 copies of SF1 binding site from human aromatase gene, 5′-CCAAGGTCAGAA-3′ (SEQ ID NO:3), into pUMS-64/+5CAT (Zhou and Chen, 1999) through a HindIII site. […]

The target of the next assay is T2, AR HBD (Homo sapiens, UniProt P10275).
T2 construct: fusion proteins of Gal4-DBD and HBDs of AR, GR, PR, TR, RAR, and RXR in pGBT9 vector; expressed in transfected cells; host or cells: yeast Y187 x CG1945 diploids; plasmid a gift of M. R. Stallcup
In words: Yeast two-hybrid assay (HIS3 / β-galactosidase reporter). The format is cell-based. The note with it: 100 nM of dihydrotestosterone. How it is done:
(§1) The protein-protein interactions between the full-length PNRC or PNRC fragments and SF1, ERRα1, and several other nuclear receptors were analyzed by yeast two-hybrid assays. The yeast two-hybrid assay was used to test if PNRC also interacts with other members of the nuclear receptor superfamily. pGBT9-ERRα-1 yeast expression plasmid was prepared by inserting the PCR-amplified ERRA-1 coding region into pGBT9 through an EcoRI site. To construct the plasmid pGBT9-ER274-595, the coding sequence from amino acids 274 to 595 (LBD) of ERα was amplified by PCR with the sense primer 5′-[…]-3′ (SEQ ID NO:1) and antisense primer 5′-[…]-3′ (SEQ ID NO:2) and cloned into the EcoRI/,SalI site of the pGBT9 yeast expression plasmid. pSG5-GRIP1 and several yeast expression plasmids coding for fusion proteins of Gal4-DBD and HBDs of AR, GR, PR, TR, RAR, and RXR in pGBT9 vector were kindly provided by Dr. Michael R. Stallcup (University of Southern California, Los Angeles, Calif.) (Voegel et al., 1996; Hong et al., 1996; Ding et al., 1998). The yeast mating approach was used in yeast two-hybrid assays to study protein-protein interactions as described in Clontech's protocol. Briefly, pGBT9 (DNA-BD vector only), pGBT9/target plasnmids for SF1, ERRα1, and other HBDs of nuclear receptors, and DNA-BD/control plasmids (as negative control) were introduced into the reporter strain Y187, and the AD vector alone or wild type PNRC and its deleted fragments-containing pACT2 derivatives were used to transform yeast strain CG1945. The yeast mating was performed by picking one colony from each type and growing both colonies in liquid YPD medium with or without a proper ligand at the following concentrations: 100 nM of estradiol for ER; 10 μM of deoxycorticosterone for GR; 100 nM of dihydrotestosterone for AR; 500 nM of progesterone for PR; 10 μM of T3 for TR; 10 μM of all-trans-retinoic acid for RAR; and 10 μM of 9-cis-retinoic acid for RXR. The same amount of an aliquot of the mating culture was spread on both SD/-Leu/-Trp plates to select diploid strains bearing both plasmids and SD/-Leu/-Trp/-His/+3-AT plates to score the growth of the diploid cells that express the two interacting target proteins. The His3 positive colonies were further analyzed for β-galactosidase activity by liquid β-galactosidase activity measurement as essentially described in the protocol.
(§2) Yeast strains Y187 expressing the Gal4DB fusion to the nuclear receptors and CG1945expressing Gal4AD alone or Gal4AD-PNRC fusion protein were mated by co-culturing, and selected for the presence of both two-hybrid plasmids. The expression of interacting hybrid proteins in yeast diploids was analyzed to determine if there was induction of HIS3 expression as shown in FIG. 1A and LacZ expression as shown in FIGS. 1B and 1C. […] As shown in FIGS. 1A-C, PNRC also interacted specifically with all seven nuclear receptor HBDs, including ER, AR, GR, TR, PR, RAR and RXR, and these interactions were completely ligand-dependent. […] However, no interactions occurred either between PNRC and an irrelevant protein such as human lamin C protein or between nuclear receptors and Gal4activation domain alone.

The next assay has as its system PR HBD. Described as above. Format: cell-based. The note with it: 500 nM of progesterone. How it is done:
as §1, §2

Assay [2] deals with T1, SF1. The description is as above. To be noted: no ligand. The format is cell-based, bovine. Also noted: The coding region for the wild type bovine SF1 was first subcloned into a yeast expression vector, pGBT9; expressed in transfected cells; host or cells: yeast (Y187, or Y187 x CG1945 diploids). How it is done:
as §1, §2

T1 sequence (Q04752 whole entry): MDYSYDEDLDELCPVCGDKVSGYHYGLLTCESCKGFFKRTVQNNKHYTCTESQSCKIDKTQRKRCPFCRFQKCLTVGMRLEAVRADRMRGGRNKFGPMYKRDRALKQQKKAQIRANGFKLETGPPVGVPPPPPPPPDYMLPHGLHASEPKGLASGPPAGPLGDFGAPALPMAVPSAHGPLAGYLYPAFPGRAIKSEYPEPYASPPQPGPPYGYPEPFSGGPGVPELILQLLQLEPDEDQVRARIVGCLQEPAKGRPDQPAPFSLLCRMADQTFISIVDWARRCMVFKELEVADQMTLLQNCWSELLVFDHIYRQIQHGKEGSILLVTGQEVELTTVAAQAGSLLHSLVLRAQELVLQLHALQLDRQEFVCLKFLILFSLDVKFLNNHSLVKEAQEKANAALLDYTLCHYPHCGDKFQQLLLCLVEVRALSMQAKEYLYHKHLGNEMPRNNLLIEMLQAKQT
Sequence of PR HBD (P06401 679-933 limits assumed): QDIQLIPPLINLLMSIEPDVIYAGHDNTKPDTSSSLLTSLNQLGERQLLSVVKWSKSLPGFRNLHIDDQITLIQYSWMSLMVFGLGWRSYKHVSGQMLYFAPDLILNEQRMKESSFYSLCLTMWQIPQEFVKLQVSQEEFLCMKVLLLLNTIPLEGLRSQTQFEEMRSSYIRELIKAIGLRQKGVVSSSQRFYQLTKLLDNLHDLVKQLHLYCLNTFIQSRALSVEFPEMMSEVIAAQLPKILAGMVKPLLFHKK
T2 sequence (P10275 669-900 limits assumed): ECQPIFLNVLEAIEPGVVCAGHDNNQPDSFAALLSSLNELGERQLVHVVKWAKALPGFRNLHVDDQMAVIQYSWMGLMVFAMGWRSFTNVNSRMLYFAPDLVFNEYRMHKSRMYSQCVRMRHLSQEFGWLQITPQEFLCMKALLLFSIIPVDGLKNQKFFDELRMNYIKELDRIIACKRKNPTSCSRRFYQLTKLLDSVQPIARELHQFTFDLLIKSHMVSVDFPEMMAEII
T2 sequence (Q12796 whole entry partner, the tested form may be a part): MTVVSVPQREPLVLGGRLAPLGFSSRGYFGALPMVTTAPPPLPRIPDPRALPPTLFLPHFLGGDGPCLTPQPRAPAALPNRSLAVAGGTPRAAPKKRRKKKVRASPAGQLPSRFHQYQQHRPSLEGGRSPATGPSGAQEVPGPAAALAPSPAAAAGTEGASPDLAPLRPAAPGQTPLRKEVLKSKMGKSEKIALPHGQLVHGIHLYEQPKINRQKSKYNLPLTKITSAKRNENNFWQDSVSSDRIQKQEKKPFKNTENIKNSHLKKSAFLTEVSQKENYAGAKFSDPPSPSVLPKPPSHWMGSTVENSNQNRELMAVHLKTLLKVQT

For the substance “PNRC: proline-rich nuclear receptor co-regulatory protein, 327 aa, SEQ ID NO:8, nuclear receptor coactivator”, the “effect on SF1-stimulated transcription by promoter 1.3 of the human aromatase gene” value with SF1 [1] is “enhanced both SF1-stimulated and ERRα1-stimulated transcription”. The “interaction with AR” value with AR HBD is “only weak interactions were detected”. Moreover, the “interaction with PR” value in the assay with PR HBD is listed as “interacts strongly”. Further, the “interaction with SF1” value with SF1 [2] is “interacted with orphan receptors SF1 and ERRα1 in the absence of any added activator or ligand”.
